One molecule from US5851983 can be followed below.

No end group written: not given here.

The experiment deals with Polymorphonuclear leukocyte elastase from human sputum (EPC Co.; Funakoshi Yakuhin) (human) (UniProt P08246).

B1: by-product oligomer formed in Example 17 (peptide)
chain: RKPGKCPVTYGQCLMLNPPNFCEMDGQCKRDLKCCMGMCGKSCVSPVKA
modifications: also: oligomer formed during refolding, number of chains and linkages not given here
Turning to B1, the IC50 (as a rule, the concentration that gives 50% inhibition) turned out to be 0.3 µM.
